Data taken from article PMC9536601 (2022).

Legend:
Experiment in all cases: SPR
[1] = target: T1, Ad6 hexon, on wild-type human adenovirus type 6 virions (human adenovirus type 6)
T1 chain: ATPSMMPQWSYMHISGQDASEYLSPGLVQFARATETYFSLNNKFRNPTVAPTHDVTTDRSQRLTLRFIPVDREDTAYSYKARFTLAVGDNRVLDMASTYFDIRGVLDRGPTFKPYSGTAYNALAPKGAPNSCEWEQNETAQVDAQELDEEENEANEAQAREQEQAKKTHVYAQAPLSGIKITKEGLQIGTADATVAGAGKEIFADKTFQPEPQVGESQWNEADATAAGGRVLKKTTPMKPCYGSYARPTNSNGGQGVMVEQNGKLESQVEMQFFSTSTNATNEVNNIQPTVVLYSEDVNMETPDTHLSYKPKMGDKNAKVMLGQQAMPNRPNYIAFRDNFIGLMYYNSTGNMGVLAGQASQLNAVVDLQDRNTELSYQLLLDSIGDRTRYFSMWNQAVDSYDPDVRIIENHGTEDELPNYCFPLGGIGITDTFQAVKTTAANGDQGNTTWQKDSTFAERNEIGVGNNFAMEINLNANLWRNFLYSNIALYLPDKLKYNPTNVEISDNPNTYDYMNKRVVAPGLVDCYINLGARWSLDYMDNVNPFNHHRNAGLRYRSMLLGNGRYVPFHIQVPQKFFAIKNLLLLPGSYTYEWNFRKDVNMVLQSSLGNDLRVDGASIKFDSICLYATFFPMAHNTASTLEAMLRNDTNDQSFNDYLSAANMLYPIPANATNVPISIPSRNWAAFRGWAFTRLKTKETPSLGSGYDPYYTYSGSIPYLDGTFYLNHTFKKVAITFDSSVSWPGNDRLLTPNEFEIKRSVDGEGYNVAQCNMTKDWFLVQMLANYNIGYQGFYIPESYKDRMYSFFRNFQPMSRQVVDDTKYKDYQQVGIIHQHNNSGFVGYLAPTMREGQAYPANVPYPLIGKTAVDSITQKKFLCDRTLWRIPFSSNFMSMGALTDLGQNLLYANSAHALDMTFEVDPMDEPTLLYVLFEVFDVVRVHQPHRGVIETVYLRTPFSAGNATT

[2] = target: T2, Ad5 hexon, on wild-type human adenovirus type 5 virions (human adenovirus type 5, UniProt P04133 2-952)
T2 chain: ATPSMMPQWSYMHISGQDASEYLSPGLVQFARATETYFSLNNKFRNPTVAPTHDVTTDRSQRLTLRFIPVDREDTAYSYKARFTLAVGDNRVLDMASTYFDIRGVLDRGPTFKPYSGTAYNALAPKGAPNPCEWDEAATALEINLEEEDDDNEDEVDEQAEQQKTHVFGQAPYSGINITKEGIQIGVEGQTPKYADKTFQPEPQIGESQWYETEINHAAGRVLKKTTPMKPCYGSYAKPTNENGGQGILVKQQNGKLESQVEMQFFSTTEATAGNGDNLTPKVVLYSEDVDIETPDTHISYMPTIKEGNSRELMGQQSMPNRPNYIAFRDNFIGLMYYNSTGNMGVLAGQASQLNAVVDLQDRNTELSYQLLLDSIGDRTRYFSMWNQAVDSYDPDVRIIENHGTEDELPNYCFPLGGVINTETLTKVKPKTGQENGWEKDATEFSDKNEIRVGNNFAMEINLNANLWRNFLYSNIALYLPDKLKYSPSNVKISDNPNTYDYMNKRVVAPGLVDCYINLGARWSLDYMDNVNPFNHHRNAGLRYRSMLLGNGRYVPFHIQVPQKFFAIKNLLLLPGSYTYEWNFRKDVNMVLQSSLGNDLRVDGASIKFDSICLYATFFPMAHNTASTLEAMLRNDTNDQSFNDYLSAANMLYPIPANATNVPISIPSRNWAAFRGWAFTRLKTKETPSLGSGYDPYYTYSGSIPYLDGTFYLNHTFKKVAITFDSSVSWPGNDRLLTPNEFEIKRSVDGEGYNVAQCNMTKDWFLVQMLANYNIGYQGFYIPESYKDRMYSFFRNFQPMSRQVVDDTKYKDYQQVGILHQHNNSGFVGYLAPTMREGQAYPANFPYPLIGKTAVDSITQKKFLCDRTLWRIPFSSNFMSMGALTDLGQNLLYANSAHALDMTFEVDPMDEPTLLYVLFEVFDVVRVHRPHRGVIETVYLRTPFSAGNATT

[3] = target: T3, Ad1 hexon, on wild-type human adenovirus type 1 virions (human adenovirus type 1)
T3 chain: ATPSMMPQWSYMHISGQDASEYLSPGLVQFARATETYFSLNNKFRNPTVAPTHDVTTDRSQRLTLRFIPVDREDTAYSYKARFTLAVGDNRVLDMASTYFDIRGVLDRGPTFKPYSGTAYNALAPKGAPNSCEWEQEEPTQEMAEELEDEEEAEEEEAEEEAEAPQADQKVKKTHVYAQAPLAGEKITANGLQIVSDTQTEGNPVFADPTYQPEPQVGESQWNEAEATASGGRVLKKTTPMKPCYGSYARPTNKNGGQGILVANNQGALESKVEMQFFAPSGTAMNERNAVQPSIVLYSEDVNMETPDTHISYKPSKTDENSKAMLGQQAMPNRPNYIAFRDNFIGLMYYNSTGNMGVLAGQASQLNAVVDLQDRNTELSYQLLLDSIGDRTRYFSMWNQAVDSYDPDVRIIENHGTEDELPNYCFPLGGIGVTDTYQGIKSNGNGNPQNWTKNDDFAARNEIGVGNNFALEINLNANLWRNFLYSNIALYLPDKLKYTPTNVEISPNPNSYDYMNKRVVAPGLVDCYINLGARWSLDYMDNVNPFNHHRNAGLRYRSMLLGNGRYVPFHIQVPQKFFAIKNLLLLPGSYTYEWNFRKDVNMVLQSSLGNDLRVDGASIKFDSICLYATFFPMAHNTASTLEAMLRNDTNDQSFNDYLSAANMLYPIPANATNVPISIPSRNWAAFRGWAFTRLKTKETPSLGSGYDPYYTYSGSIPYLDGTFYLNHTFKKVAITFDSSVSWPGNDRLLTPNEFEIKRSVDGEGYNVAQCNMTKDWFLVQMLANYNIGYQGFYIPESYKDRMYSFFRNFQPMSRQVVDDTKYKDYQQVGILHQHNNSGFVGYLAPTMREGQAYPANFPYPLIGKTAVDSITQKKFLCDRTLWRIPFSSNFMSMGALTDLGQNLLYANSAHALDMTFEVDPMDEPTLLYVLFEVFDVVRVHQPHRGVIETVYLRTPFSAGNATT

B1: mouse coagulation factor X (natural protein)
chain 1: ANSFFEEFKKGNLERECMEEICSYEEVREIFEDDEKTKEYWTKYKDGDQCESSPCQNQGACRDGIGGYTCTCSEGFEGKNCELFVRKLCRLDNGDCDQFCREEQNSVVCSCASGYFLGNDGKSCISTAPFPCGKITTGRR
chain 2: VALNTSDSELDLEDALLDEDFLSPTENPIELLNLNETQPERSSDDLVRIVGGRECKDGECPWQALLINEDNEGFCGGTILNEFYILTAAHCLHQARRFKVRVGDRNTEKEEGNEMVHEVDVVIKHNKFQRDTYDYDIAVLRLKTPITFRMNVAPACLPQKDWAESTLMTQKTGIVSGFGRTHEKGRQSNILKMLEVPYVDRNTCKLSTSFSITQNMFCAGYEAKLEDACQGDSGGPHVTRFKNTYYVTGIVSWGEGCARKGKYGIYTKVTTFLKWIDRSMKARVGPTAETPRTAGPPN
modifications: gamma-carboxylated glutamate residues in the Gla domain
Kd [1]: 0.42 nM | Kd [2]: 0.35 nM | Kd [3]: 0.31 nM
